The target of assay [1] is T1, Human active C1s (Complement Technology) (human, UniProt P09871 16-688).
T1 sequence: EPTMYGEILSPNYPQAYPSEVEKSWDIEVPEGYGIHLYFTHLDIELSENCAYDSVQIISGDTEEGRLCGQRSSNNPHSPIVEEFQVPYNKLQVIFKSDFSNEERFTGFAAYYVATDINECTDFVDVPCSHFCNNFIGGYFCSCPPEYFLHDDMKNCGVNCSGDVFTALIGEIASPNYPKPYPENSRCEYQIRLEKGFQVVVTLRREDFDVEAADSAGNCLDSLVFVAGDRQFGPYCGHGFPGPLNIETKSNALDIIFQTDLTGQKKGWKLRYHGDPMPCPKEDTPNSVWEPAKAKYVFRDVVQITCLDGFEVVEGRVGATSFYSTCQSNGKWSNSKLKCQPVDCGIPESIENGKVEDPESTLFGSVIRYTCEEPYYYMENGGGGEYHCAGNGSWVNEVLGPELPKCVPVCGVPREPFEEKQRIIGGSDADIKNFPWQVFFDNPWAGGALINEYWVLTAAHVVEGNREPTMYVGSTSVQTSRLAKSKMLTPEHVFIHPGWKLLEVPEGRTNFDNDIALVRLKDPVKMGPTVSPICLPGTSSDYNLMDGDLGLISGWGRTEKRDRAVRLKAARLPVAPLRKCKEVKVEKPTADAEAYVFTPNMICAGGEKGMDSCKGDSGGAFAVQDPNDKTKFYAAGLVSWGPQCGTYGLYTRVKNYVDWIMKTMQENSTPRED
The experiment in a line: cell-based or functional assay.

The target of assay [2] is T1, Human active C1s (Complement Technology). The experiment in a line: cell-based or functional assay. The source holds these as a separate data set.
Assay [3] has as its target T2, His-tagged recombinant human TfR (produced in-house) (human, UniProt P02786 89-760).
T2 construct: also called hTfR; transferrin receptor 1
The experiment in a line: hTfR affinity, SPR (method not restated for Table 1; same value as Table 2). As to the method:
(§1) TfR and C1s binding using surface plasmon resonance (SPR): Analysis of antibody binding to TfR was performed on a Biacore™ T200 instrument using anti-His capture at 25° C. Anti-His (Qiagen) was buffer exchanged into PBS pH 7.2, diluted to 25 μg/mL in 10 mM sodium acetate pH 4.0 and directly immobilized to a series S CM5 chip to a surface density of ˜10,000 RU using the amine coupling kit provided by Cytiva. His-tagged recombinant human TfR (produced in-house) was diluted in HBS-EP+ pH 7.4 running buffer (10 mM HEPES pH 7.4, 150 mM NaCl, 3 mM EDTA, 0.05% surfactant P20) and injected for 5 sec at 20 μL/min flowrate to obtain capture level of 20 RU. Antibodies were serially diluted 2-fold from 90 to 5.625 nM in running buffer and injected over the captured TfR for 3 min followed by 9 min dissociation in buffer at 30 μL/min. Each cycle was regenerated with 10 mM glycine pH 1.5. To measure C1s binding, anti-human Fc (Jackson) was directly immobilized to a CM5 chip using amine chemistry. Antibodies were diluted to 2.5 μg/mL in HBS-EP+ pH 7.4 and captured to the chip for 15 sec at 20 μL/min flowrate. Human active C1s (Complement Technology) was serially diluted 2-fold from 20 to 0.625 nM in running buffer and injected over the captured antibodies for 180 sec at 50 μL/min followed by 9 min dissociation in buffer. The bound complex was removed from the chip each cycle with 40 mM HCl and 0.85% phosphoric acid. Sensorgrams were processed using the Biacore™ Insight software and fit to a 1:1 binding model to obtain kinetic constants.
(§2) The six bispecific anti-aC1s/anti-TfR antibodies were first tested for their affinity for both TfR and aC1s via surface plasmon resonance (SPR) (Table 2).

The target in assay [4] is T1, Human active C1s (Complement Technology). Kind of assay: SPR Biacore T200, antibody captured on anti-human Fc, human active C1s as analyte, 1:1 fit. As to the method:
as §1, §2
A general note: SPR reads the build-up and loss of mass on a sensor chip optically.

Assay [5] concerns the target T2, His-tagged recombinant human TfR …. Kind of assay: SPR Biacore T200, His-tagged human TfR captured on anti-His, antibody as analyte, 25 C, 1:1 fit. As to the method:
as §1, §2

Assay [6] shares this target. Kind of assay: SPR Biacore T200 (Table 2). As to the method:
as §1, with “The bound complex was removed from the chip each cycle with 40 mM HCl and 0.85% phosphoric acid. Sensorgrams were processed using the Biacore™ Insight software and fit to a 1:1 binding model to obtain kinetic constants.” left out

Consider four molecules from US20250376511A1 (Sanofi, published 2025).

T2 sequence (P02786 89-760 limits assumed): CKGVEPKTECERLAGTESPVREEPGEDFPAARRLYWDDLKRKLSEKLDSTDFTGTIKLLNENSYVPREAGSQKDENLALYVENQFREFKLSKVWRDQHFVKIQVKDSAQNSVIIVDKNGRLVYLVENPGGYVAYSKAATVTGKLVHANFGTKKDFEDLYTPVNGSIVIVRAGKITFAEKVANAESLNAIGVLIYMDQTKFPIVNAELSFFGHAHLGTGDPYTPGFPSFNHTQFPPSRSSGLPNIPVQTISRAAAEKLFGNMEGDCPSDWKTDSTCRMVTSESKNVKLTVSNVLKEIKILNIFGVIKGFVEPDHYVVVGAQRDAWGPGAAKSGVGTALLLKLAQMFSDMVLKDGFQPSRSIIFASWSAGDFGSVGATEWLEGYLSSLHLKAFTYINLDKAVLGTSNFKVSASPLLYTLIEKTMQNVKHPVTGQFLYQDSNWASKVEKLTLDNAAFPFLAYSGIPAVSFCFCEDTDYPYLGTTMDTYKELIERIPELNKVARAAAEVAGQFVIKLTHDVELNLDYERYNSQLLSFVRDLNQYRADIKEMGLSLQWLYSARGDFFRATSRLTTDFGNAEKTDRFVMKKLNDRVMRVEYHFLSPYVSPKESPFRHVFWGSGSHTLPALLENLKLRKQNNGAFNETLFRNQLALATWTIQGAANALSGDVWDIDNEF

B1: aC1s_088 × 531v25 IgG4-PE/dK (bispecific antibody, V domains shown)
VH 1: QVQLVQSGAEVKKPGASVKLSCTASGFNIKDDYIHWVKEAPGQGLEWIGRIDPADGHTKYAPKFQVKVTITADTSTSTAYLELSSLRSEDTAVYYCARYGYGREVFDYWGQGTTVTVSS
VL 1: DIVLTQSPDSLAVSLGERATISCKASQSVDYDGDSYMNWYQKKPGQPPKILIYDASNLESGIPARFSGSGSGTDFTLTISSLEPEDFAIYYCQQSNEDPWTFGGGTKVEIK
VH 2: QVQLVQSGAEVKKPGASVKVSCKASGYTFTRYYLNWVRKAPGQGLEWIGMIDPSVSETHYAQKFQGRATLTVDKSTSTAYMELSSLRSEDTAVYYCSQIRLPYYYAMDSWGQGTTVTVSS
VL 2: DIQMTQSPSSLSASVGDRVTITCRASQDISSFLNWYQEKPGKAPKLLIYYTSRLQSGVPSRFSGSGSGTDYTLTISSLQPEDFATYYCQQGNTLPRTFGGGTKVEIK
notes: IgG4-PE Fc, dK, with charge pairing mutations; The starred variable domains are used, as for m5; also called aC1s_088-CM × 531v25 IgG4
The Kd is the concentration at which binding is half-saturated. As a reminder, the koff is a measure of how fast the partners let go of each other. Usually kon stands for the rate constant with which the complex forms. For the molecule B1, the “IC50, Wieslab Complement Pathway Assay (classical pathway, 1% NHS)” value (from here on “IC50 … (classical pathway, 1% NHS)”) in assay [1] was 1.63 µg/mL. In addition, in assay [2], the “IC50, C3d deposition on neurons in iPSC tricultures with serum” value (from here on “IC50, C3d deposition on neurons”) amounted to 29.3 µg/mL. Further, the Kd in assay [3] was 22.6 nM. In assay [4], the Kd is 0.75 nM, the koff stood at 0.00246 s⁻¹ and the kon was 3.31e+06 M⁻¹ s⁻¹. Further, in assay [5], the Kd was 22.6 nM, the koff is 0.00413 s⁻¹ and the kon came out at 183000 M⁻¹ s⁻¹.

B2: aC1s_088 × 531v23 IgG4-PE/dK (bispecific antibody, V domains shown)
VH 1: QVQLVQSGAEVKKPGASVKLSCTASGFNIKDDYIHWVKEAPGQGLEWIGRIDPADGHTKYAPKFQVKVTITADTSTSTAYLELSSLRSEDTAVYYCARYGYGREVFDYWGQGTTVTVSS
VL 1: DIVLTQSPDSLAVSLGERATISCKASQSVDYDGDSYMNWYQKKPGQPPKILIYDASNLESGIPARFSGSGSGTDFTLTISSLEPEDFAIYYCQQSNEDPWTFGGGTKVEIK
VH 2: QVQLVQSGAEVKKPGASVKVSCKASGYTFTRYYLNWVRKAPGQGLEWIGMIDPSVSETHYAQKFQGRATLTVDKSTSTAYMELSSLRSEDTAVYYCSQIRLPYYYAMDSWGQGTTVTVSS
VL 2: DIQMTQSPSSLSASVGDRVTITCRASQDISSFLNWYQEKPGKAPKLLIYYTSRLHSGVPSRFSGSGSGTDYTLTISSLQPEDFATYYCQQGNTLPRTFGGGTKVEIK
notes: IgG4-PE Fc, dK, with charge pairing mutations; The charge-mutated (starred) variable domains are used for both arms; also called aC1s_088-CM × 531v23 IgG4
Regarding B2, the “fold higher affinity than the 531v25 and 531v25.v6 variants” value in assay [6] is ~2 fold. Moreover, the “IC50 … (classical pathway, 1% NHS)” value in assay [1] turned out to be 1.67 µg/mL. Moreover, the “IC50, C3d deposition on neurons” value in assay [2] was determined as 16.2 µg/mL. For the same molecule, the values for the Kd in assay [3], in assay [4] and in assay [5] were 9.65 nM, 0.79 nM and 9.65 nM, respectively. Also, the koff in assay [4] is 0.00245 s⁻¹; in assay [5], 0.00183 s⁻¹. The kon turned out to be 3.14e+06 M⁻¹ s⁻¹ in assay [4] and 189000 M⁻¹ s⁻¹ in assay [5].

B3: aC1s_088 × 531v25.v6 IgG4-PE/dK (bispecific antibody, V domains shown)
VH 1: QVQLVQSGAEVKKPGASVKLSCTASGFNIKDDYIHWVKEAPGQGLEWIGRIDPADGHTKYAPKFQVKVTITADTSTSTAYLELSSLRSEDTAVYYCARYGYGREVFDYWGQGTTVTVSS
VL 1: DIVLTQSPDSLAVSLGERATISCKASQSVDYDGDSYMNWYQKKPGQPPKILIYDASNLESGIPARFSGSGSGTDFTLTISSLEPEDFAIYYCQQSNEDPWTFGGGTKVEIK
VH 2: QVQLVQSGAEVKKPGASVKVSCKASGYTFTRYYLNWVRKAPGQGLEWIGMIDPSVSETHYAQKFQGRATLTVDKSTSTAYMELSSLRSEDTAVYYCSQIRLPYYYAMDSWGQGTTVTVSS
VL 2: DIQMTQSPSSLSASVGDRVTITCRASQDIESFLNWYQEKPGKAPKLLIYYTSRLQSGVPSRFSGSGSGTDYTLTISSLQPEDFATYYCQQGNTLPRTFGGGTKVEIK
notes: IgG4-PE Fc, dK, with charge pairing mutations; The starred variable domains are used, as for m5; also called aC1s_088-CM × 531v25.v6 IgG4
As to B3, in assay [1], the “IC50 … (classical pathway, 1% NHS)” value was 1.79 µg/mL. Besides, the “IC50, C3d deposition on neurons” value in assay [2] amounted to 7.48 µg/mL. Besides, in assay [3], the Kd amounted to 18.9 nM. In assay [4], the affinity, expressed as Kd, was 0.76 nM; the koff worked out at 0.00273 s⁻¹; the kon is 3.59e+06 M⁻¹ s⁻¹. In assay [5], the Kd is 18.9 nM, the koff amounted to 0.00304 s⁻¹ and the kon worked out at 161000 M⁻¹ s⁻¹.

B4: aC1s_088 × 531v23 IgG1-NNAS/dK (bispecific antibody, V domains shown)
VH 1: QVQLVQSGAEVKKPGASVKLSCTASGFNIKDDYIHWVKEAPGQGLEWIGRIDPADGHTKYAPKFQVKVTITADTSTSTAYLELSSLRSEDTAVYYCARYGYGREVFDYWGQGTTVTVSS
VL 1: DIVLTQSPDSLAVSLGERATISCKASQSVDYDGDSYMNWYQKKPGQPPKILIYDASNLESGIPARFSGSGSGTDFTLTISSLEPEDFAIYYCQQSNEDPWTFGGGTKVEIK
VH 2: QVQLVQSGAEVKKPGASVKVSCKASGYTFTRYYLNWVRKAPGQGLEWIGMIDPSVSETHYAQKFQGRATLTVDKSTSTAYMELSSLRSEDTAVYYCSQIRLPYYYAMDSWGQGTTVTVSS
VL 2: DIQMTQSPSSLSASVGDRVTITCRASQDISSFLNWYQEKPGKAPKLLIYYTSRLHSGVPSRFSGSGSGTDYTLTISSLQPEDFATYYCQQGNTLPRTFGGGTKVEIK
notes: IgG1-NNAS Fc, dK, with charge pairing mutations; The starred variable domains are used, as for m5; also called v23 variant
Turning to B4, the “fold higher affinity than the 531v25 and 531v25.v6 variants” value in assay [6] is ~2 fold. Moreover, the “IC50 … (classical pathway, 1% NHS)” value in assay [1] was 1.67 µg/mL. Besides, the “IC50, C3d deposition on neurons” value in assay [2] was 13.9 µg/mL. In assay [4], the Kd was 0.66 nM, the koff turned out to be 0.00275 s⁻¹ and the kon came out at 4.18e+06 M⁻¹ s⁻¹. Further, in assay [5], the Kd turned out to be 10.3 nM, the koff was found to be 0.00197 s⁻¹ and the kon was 192000 M⁻¹ s⁻¹.
